# Source: the supplement of paper PMC12455559
# How the values were obtained:
# [1] = PET hydrolysis, aromatic products released after 48 h (umol product/mg enzyme); higher = more PET depolymerization activity; details: substrate: cryPow
# Method: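 HTP-purified, SUMO-cleaved, tagless PET hydrolase candidates (5 ug, 1.43 mg/g PET) were incubated 48 h without shaking with 3.5 mg amorphous PET film (aFilm) or crystalline PET powder (cryPow) in 0.5 mL buffer: NaCitrate pH 4.5/5.5, NaPhosphate pH 6.5/7.5, glycine pH 8.5. Incubation was at 40 or 60 C. Aromatic products (TPA, MHET, BHET) in the supernatant were quantified by UV absorbance at 260/280 nm relative to buffer blanks and expressed per mg enzyme. LCC-ICCG was the positive control on every plate.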
# [2] = purified protein yield per well (BCA); higher = higher soluble expression
# Method in brief: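 Values under 25 ug (0.1 mg/mL) are below the detection threshold. Purified protein yield per well was quantified with the Pierce Rapid Gold BCA kit after candidate enzymes, expressed in E. coli C41(DE3), were captured on Ni-charged magnetic beads and released by SUMO protease on an OT-2 robot. Cultures were 2 mL autoinduction with 100 µg/mL kanamycin, run 2 h at 37 °C and then 40 h at 18 °C.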
Sequence,purified protein yield per well [2] [µg],other results
AAPAGPAALPARPLAAAPADSPYERGPAPTEASITAERGPFAIEKIDVPAGSGTGFNRGTIYAPTDTSQGTFGAIAVSPGFMSPQSVIDWYGPRLASQGFVVMTLETKSLLDAPAARGDQLLAALDYMTGKSKAKDRIDASRLAVMGHSMGGGGTLEAANKRASLQAAVPLAPWDTNYDWKNVQAPTMIMGADNDTIAPADSMAERYYGTLTAVPEKAYLELRNAGHTTFNAPNTTIAKYAIAWMKRFVDDDARYEQFLCPEPSPSTTIAQYEGTCPTG [TEP067],49.7,"PET hydrolysis ([1]; 40 °C, pH 4.5): 5; PET hydrolysis ([1]; 40 °C, pH 5.5): 12; PET hydrolysis ([1]; 40 °C, pH 6.5): 14; PET hydrolysis ([1]; 40 °C, pH 7.5): < 3"
ADNPYERGPAPTNASIEAVRGPYAVSQATVSSLAVTGFGGGTIYYPTTTSDGTFGAVAISPGYTGTQSSIAWLGPRLASQGFVVFTIDTNTTLDQPDSRGRQLLAALDYLTRVSPLRTRVDSTRLGVMGHSMGGGGSLEAAKSRPSLQAAIPLTPWNLDKTWPEIQTPTLIVGADGDSIAPVSSHAEPFYENLPSSLDRAYLELNGASHFAPNSSNTTIAKYSISWLKRFIDNDTRYEQFLCPLPRPSLTIEEYRGNCPHQS [TEP188],72.2,"PET hydrolysis ([1]; 40 °C, pH 4.5): < 3; PET hydrolysis ([1]; 40 °C, pH 5.5): < 3; PET hydrolysis ([1]; 40 °C, pH 6.5): < 3; PET hydrolysis ([1]; 40 °C, pH 7.5): < 3; PET hydrolysis ([1]; 60 °C, pH 4.5): < 3; PET hydrolysis ([1]; 60 °C, pH 5.5): < 3; PET hydrolysis ([1]; 60 °C, pH 6.5): < 3; PET hydrolysis ([1]; 60 °C, pH 7.5): < 3"
VPAPPAVERGPAPTPASVTAAVGPHAVITAAVRRADVAGFGGGTLLAPADAAGGPYGVVAVAPGFREGAATLAWLGPRLASRGFVVLLVDTLDPDEFPTARAAELLAAIDWVVADSPVRDRADPARAAVLGHSMGGGAALEAALARPGLRAAIPMAPWDPAADFAGVRVPTLVLAAEDDTIAPPAEHAERFYASLTAPARAYALLPGRDHDFSNAPDDVTAGLVLSWLARFVDGDTRYTRLLCRGTLSAAVASQQDTCPAP [TEP074],< 25,–
VQIGPAPTSAALNKDGSFSVSSSSVSMLSARGFGSGTIYYPSTSGQYGVIAVCPGFTGTSSSISWFARRLASHGFVTIAMNTTTTLDQPASRATQLAAALKYVLNSSSSTVRSRIRAADRGVAGHSMGGGGTLIASQSDSTLRVGIPMTPWNLSTNFSSVKVPQMIFGADGDTIAPYASHARPFYNSLSKAPKAYGLLKSATHFTPNATDQRIGRYGVAFAKRFVDGDTRYSPFLCGSEHNSYATSSKFATYLSNCPY [ESM148],< 25,–
VQIGPAPTSAALNKDGTFSVSSTSVSSLSARGFGGGTIYYPTTAGQYGVIAVCPGYTGTSSSISWFARRLATHGFVTIAMNTTTTLDQPDSRATQLAAALKCVLSNSTVKSRIRSTDRGVAGHSMGGGGTLIASQSDSSLRVGIPMTPWNLSTNFSAVKVPQMIFGADGDTIAPYASHARPFYNSINKTQKAYGLLKSATHFTPNSTDQRIGRYGVAFAKRFVDGDTRYSAFLCGAEHSSYATSSKFATYLSNCPY [ESM154],< 25,–
VQIGPNPTKASLEASSGPFTVGKFTISRPSGYAAGTVYYPTNAGAKVGVISIVPGFVSYQSSVAWWGPRLASHGFVVVTIDTNTTVDQPDSRSRQQLAALDQVVALGNNSSSPLYNKIDGTRTGVMGWSMGGGGSLISAKNRPSIKAAAPQAPWASLTSFSSLTVPTLIFSCQSDIVAPVATHANSFYNEMSRNPKQLLEKTLGDHFCMNSANPTVGLKGVAWMKRFIDGDTRYTTFACSNPNAFGFSDFRTARCS [ESM111],< 25,–
VQNGPAPTLAALKADGPYAITSQAVAGNGFGAGTIYTPTAAGKYALVAICPGFVSAQSTMAGLAKRLATHGFVVVAISTNTLLDFPSSRATQLLAALKTVSALNTGAVAGKVDTTRQAVSGWSMGGGGTLEAAGATPGLVAAVAFAPWDTSTTKMKVNKVPAAIIGGSSDAVAPVASHSQKFYD [ESM063],< 25,–
VQNGPNPTLDAIKADGPYAITSQAVAGNGFGAGTIYMPTAAGKYALVAICPGFVSAQSTMAGMAKRLATHGFVVVAISTNTLFDFPSSRATQLLAALKTVSALNTGAVVGKIDTTRQAVSGWSMGGGGTLEAAGATPGLVAAVAFAPWDTSTTKMKVNKVPAAIIGGSSDVIAPVASHSQKFYDAIPATTPKLLAVINGADHFFPTKASEPASYTNISWMKRFADGDTRYSSFLNGNDAALSSFSSNGPF [ESM056],< 25,–
VQNGPTPTLADLKKDGPYAVTSQTVAGNGFGGGTVYSPNTAGKYALVAVCPGFVSAQSSMTEMGRRLATHGFVVVTIATNTPFDFPSSRATQLLAALKTVAALNTGAVAGKVDTSRQVVSGWSMGGGGTLEAAGITPGLVAGVAFAPWHTSTAKMTSLTVPVAIIGGTSDTIAPVSGHSQKFYDAIPKTTKKMLGVITGADHFFPTKASEPTSYSNISWVKRFADGDTRYSPFLTGQDAAWASFVSTGPF [ESM118],< 25,–
VQSESPGKKYTSGPYGYTTTSLTGYSAGATIYIPRTGTPPYSGIVFMQPYTGTQAMDAAWGPFFASHGIIYVNCDSMTTLDTVDSRATQQMNAVSILKSSSKVKGKLDTSRVGVMGWSMGGGASWINSSKSGVKTAMTLAGHNLTAVSTASKGYSTRCPTAIFSGSLDTTYLGGLGQSEGVYAAIPRSVSKLHYKVATAGHMVWGGPTTASVNVGAIGLAFQKTYLDGDTRWKAYITRPADAAIWTTNLR [TEP005],< 25,–
WLTSAASPVRARVDANRLGVGGHSMGGGGAIEAASEMPSLKASIGFEPWNGIGSWPGVRVPTMIQGAQNDNIAPVAQHSEPFYNSMTNAPEKAYAEFTGASHFFSGQAGPATTRLSVSWYKRFLDNDTRYDQFLCPGPRSPEVVEYRNTCPLTTPGGGGGTTTTTGPGTTTTTRPTTTTTAPPAQCQWWEWWCWLGWG [TEP046],< 25,–
WTPDPEPPGPVPEPCNTDCSQGPYPTTGSVEANMGPFSISSVSVPWTVSGFGGGTIYYPSSGTTGSLGAIALIPGFLGPEWTISAWGERLASHGFIVITVATNAVTDQPDSRATQLSRALDHVIIESGSTSSPIYGMVDPNRLGAMGISMGGGGTLKLTSDRTLSAAVPMVPWYLGFNDFESIDTPTLIIGCENDTIAPVALHSIPFYNAISDDVDKAYLEMNNGSHGCVAGLTNVDILGKYAVSWMKRFIDNDQRYDQFLCGPNHTAPFSVSDYRDNCDY [DP096],< 25,–
YILASGFVGQLVAQTPSLEALGRQGPYQVAWYTQLPSVPEFSGATLYFPANKAQDFGGVVISPGFFERQENISWWGNYLASHGFAVITFDTNELRDLPPLRADALLATIDLLRGENSRQGSAVRGKILEDSMAVMGHSMGGAAALLLANENSNEIKAAIPFNAGGLRNANFSAVAVPTLVIAGEIDRLAPVNEHAWSHYQTLT [TEP088],< 25,–
YNPPPPPPDPGPGPGQPSDGFERGPNPSVSFLEASRGPFSIRETRVSGTVRGFGGGTIYYPTGTSGTMGAIVVIPGFVSPESSIAWWGPKLASHGFVVMTIATNSGYDQPRSRATQINSALDYLIDQNSDSRSPVRNMIDTDRLGVMGWSMGGGGTLRVASQNRLKAAVGLAPYDTISFRNVDAPTMILACESDTIAPVRNHASPFYNEIPFNTDKAFFEINGGSHTCANGGNRFNETLSRLGVSWMKR [ESM179],< 25,–
YQRGPDPTRSALTADGPFSVTTYTVSRYAVTGFGGGVIYYPTGTSLTFGGIAVSPGYTADASSLAWFGRRLASHGFVVLVINTNSRFDFPDSRASQLAAALDYLVSRSPSAVRARLDTSRLAVAGHSMGGGATLRISENRPSLKAAVPLTPWHTDKTFNTAVPQLIIGAENDTVAPVSDHAIPFYQNLPSTTPKVYLELNNASHF [TEP127],< 25,–
YRPVVAFRVKVRKLERAIGESMASVARMQGRYLRASTLTAVAAATIVGCYLRGPDPTVELVESPVGPFEVETVLVPSTVDGFGGGEIYDPVDEDYSFGGIAVVPGVGIDRSRLEWYGPRLASHGFVVFLIETDSVWDVPDQRGEQLIAALDYMTTQSAVVDVVDPKRLAVMGYSFGGGGVIHATRLKPDLKAAIPLAMWFWDNDQSASTVPHLLISCEIDFENDAHTGAVYESRPASTARAMMEIAGADHQCIKQDGSTEQQ [TEP130],< 25,–
YYPTSTSDGTFGAVVVTPGFTATESSMAWLGPRLASQGFVVFTIDTLTTLDQPDSRGRQMLAALDYLTERSSARTRIDGTRLGVIGHSMGGGGTLEAAKSRPSLKAAIPLTPWNLDKTWPEVTTPTLVVGADGDTVAPVATHAKPFYSSLPSSTDRAYLELNNATHFAPN [TEP120],< 25,–
YYSGATLYYPIDAPEPFASIVIVPGWGMPESTIQDWGPFFASWGIVAMTIGTNNPNYDWPEERAEALLDAIETIKQEDGRINSPVYGKIDLNSFAVSGWSMGGGGAQLAAVMEPTLKAVIALCPWLDNWVLGPDDLNHSVPILIFSGENDVNAPPYLHADIHYNYTPAATDKLLFEVENGDHYVANGPDGGSGYIGDRAHEWLKKYLLDDFSNCELLLEVPPTASQYLTNIECESVIQGDLNGDGVIDILDIIILVNMILNDEYNSIADLNEDGELNILDVVTIVNLVLFGDDSVCIDIDGNIYETVQIGDQLWMAENLKVTHYNDGSEITHIINSDDWGNYNEGQYGVYDNDPSNADIYGNLYNWYTVDDDRGVCPEGFHAPSDEEFMELEIFLGMSESEANSTGNRGTNEGSKLADNADLWISGNLENNAEFGMSGFNGLPAGHRLYDNGYYSSMGNFVSYWSSTEHSSNYAWNRELEYHASVVYRFYATKQFGFSIRCLGD [TEP063],< 25,–
